# Patent US20100196385A1 (AstraZeneca / MedImmune, published 2010)
# B1: 2H10 (antibody, IgG4, V domains shown)
# VH: QVQLVESGGGVVQPGRSLRLSCAASGFTFSRHGMHWVRQAPGKGLEWVAVVWFDGSNIYYADSVKGRFTISRDNSKNTLYLQMNSLRAEDTAMYYCARDSRIAAADYWGQGTLVTVSS
# VL: SYELTQPPSVSVSPGQTVSITCSGDKLGDKYVCWYQQKPGQSPVLVIYQESKRPSGIPERFSGSSSGNTATLTISGTQAMDEADYYCQTWDSSLVVFGGGTKLTVL
# notes: Fully human; used for IgG4 rows and where no isotype is printed; also called 2H10 IgG4
# B2: 4B4 (antibody, IgG4, V domains shown)
# VH: QVLLIQSGAEVKKPGASVQVSCKASGYTFTNYGVIWVRQAPGQGLEYMGWISAYNGNTNYAQKLQDRVTMTSDTSTTTAYMELRSLRSDDTAVYYCARELGSSFDYWGQGTLVTVSS
# VL: SYELTQPPSVSVSPGQTARITCSGDALPKKYAYWYQQKSGQAPVLVIYEDIKRPSGIPERFSGSSSGTMATLTISGAQVEDEADYYCFSTDNSGDHSVFGGGTKLTVL
# notes: Fully human; used for IgG4 rows and where no isotype is printed; also called 4B4 IgG4; 4B4.1
# B3: 9G8 (antibody, IgG4, V domains shown)
# VH: QLQLQESGPGLVKPSETLSLSCTVSGGSISSSSSYWGLIRQPPGKGLEWIGSIYYSGSTYYSPSLKSRVSISVDTSKNQFSLKLSSVTAADTAVYFCARQGYGGHPDVFDIWGQGTMVTVSS
# VL: SSELTQSPSVSVSPGQTARITCSGDKLGDVYVCWYQQKTGQSPVLVIYEDTKRPSGIPERFSGSNSGNTATLTISGTQVMDEADYYCQAWDSTTAVIFGGGTKLTVL
# notes: Fully human; used for IgG4 rows and where no isotype is printed; also called 9G8 IgG4
# B4: 21H3 (antibody, IgG4, V domains shown)
# VH: QVQLVQSGAEVKKPGASVKVSCKASGYTFTNYGITWVRQAPGQGPEWMGWISAYNGNTNYAQKLQDRVTVTTDTSTSTAYMELRSLRSDDTAVYYCARDRVPRIPVTTEAFDIWGQGTMVTVSS
# VL: QSVLTQPPSASGTPGQRVTISCSGSSSNIGSYFVYWYQQLPGTAPKLLIYRNNQRPSGVPDRFSGSESGTSASLAISGLRSEDEADYYCAAWDDSLSGHWVFGGGTRLTVL
# notes: Fully human; used for IgG4 rows and where no isotype is printed; also called 21H3 IgG4
# Legend:
# [1] = biological target: T1, human Jagged1 (human, UniProt P78504 34-1218); assay: FACS, HEK-293 cells stably overexpressing human Jagged1
# T1 construct: whole, on cells
# T1 sequence (P78504 34-1218): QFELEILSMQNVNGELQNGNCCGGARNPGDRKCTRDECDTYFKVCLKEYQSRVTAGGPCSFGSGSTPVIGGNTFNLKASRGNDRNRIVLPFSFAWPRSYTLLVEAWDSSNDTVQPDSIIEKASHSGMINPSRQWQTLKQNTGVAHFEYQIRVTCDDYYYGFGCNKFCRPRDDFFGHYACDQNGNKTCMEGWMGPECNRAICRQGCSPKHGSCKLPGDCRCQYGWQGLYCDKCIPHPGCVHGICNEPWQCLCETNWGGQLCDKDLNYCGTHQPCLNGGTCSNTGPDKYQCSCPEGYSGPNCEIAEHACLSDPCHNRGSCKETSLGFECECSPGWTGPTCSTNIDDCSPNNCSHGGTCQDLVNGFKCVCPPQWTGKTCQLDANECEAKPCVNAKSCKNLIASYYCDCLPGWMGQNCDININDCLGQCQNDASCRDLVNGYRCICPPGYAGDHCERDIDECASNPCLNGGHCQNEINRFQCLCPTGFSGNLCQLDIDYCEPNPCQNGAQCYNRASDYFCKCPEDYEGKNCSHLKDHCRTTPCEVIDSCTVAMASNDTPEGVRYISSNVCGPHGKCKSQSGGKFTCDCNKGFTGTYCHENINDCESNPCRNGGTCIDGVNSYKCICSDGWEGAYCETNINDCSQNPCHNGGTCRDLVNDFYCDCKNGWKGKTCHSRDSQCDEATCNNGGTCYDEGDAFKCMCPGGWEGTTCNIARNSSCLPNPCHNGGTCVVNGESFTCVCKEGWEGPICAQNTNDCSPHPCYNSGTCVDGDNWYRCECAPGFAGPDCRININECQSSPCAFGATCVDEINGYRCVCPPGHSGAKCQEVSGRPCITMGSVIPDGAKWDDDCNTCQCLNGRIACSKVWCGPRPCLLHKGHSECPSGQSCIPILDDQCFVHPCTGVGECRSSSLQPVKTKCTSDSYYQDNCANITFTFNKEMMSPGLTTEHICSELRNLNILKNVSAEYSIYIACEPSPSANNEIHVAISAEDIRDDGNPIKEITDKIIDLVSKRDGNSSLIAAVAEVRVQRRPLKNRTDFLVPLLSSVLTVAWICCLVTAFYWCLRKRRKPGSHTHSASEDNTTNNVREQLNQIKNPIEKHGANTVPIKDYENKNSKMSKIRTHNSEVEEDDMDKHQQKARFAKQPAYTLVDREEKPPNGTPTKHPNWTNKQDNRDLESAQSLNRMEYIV
# Experimental: The ability of the purified antibodies to bind to human Jagged1 and Dll1 was determined by FACS analysis. […] Cells were resuspended in PBS containing 2% FCS and seeded at 50000 cells/well into V-bottomed plates. Anti-DLL4 antibodies diluted in PBS containing 2% FCS were added at a final concentration of 5 or 15 μg/ml and plates were incubated for 1 h at 4° C. […] Data was analyzed by comparing the shift in geometric mean fluorescence in the mock-transfected cells to that observed in the Jagged1- or Dll1-transfected cells and is shown in Tables 16 and 17.
# [2] = biological target: T2, human Dll1 (human, UniProt O00548 18-723); assay: FACS, HEK-293 cells stably overexpressing human Dll1
# T2 construct: whole, on cells
# T2 sequence (looked up): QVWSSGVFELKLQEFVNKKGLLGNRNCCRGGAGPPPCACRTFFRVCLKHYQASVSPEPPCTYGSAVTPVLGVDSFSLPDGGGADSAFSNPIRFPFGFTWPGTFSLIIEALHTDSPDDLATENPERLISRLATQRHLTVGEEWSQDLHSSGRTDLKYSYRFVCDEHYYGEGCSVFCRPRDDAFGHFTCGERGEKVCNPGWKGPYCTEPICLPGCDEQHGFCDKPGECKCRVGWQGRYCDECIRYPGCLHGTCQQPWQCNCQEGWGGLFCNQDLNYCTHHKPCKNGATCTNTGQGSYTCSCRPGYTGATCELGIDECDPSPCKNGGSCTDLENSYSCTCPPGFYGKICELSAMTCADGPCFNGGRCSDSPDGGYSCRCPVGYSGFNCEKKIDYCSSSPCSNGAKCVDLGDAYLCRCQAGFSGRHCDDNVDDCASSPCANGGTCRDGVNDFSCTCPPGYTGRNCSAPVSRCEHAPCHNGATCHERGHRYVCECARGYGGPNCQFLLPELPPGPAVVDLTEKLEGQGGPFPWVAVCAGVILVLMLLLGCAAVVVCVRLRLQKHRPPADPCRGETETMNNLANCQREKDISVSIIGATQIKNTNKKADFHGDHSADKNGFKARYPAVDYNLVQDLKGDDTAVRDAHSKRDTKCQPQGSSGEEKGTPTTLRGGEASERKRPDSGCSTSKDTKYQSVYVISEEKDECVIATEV
# [3] = biological target: T3, full length human DLL4 (human, UniProt Q9NR61 27-685); assay: FMAT, hybridoma supernatant, 293T cells with human DLL4
# T3 construct: whole, on cells; also called native DLL4 expressed in HEK293 cells
# T3 sequence (Q9NR61 27-685): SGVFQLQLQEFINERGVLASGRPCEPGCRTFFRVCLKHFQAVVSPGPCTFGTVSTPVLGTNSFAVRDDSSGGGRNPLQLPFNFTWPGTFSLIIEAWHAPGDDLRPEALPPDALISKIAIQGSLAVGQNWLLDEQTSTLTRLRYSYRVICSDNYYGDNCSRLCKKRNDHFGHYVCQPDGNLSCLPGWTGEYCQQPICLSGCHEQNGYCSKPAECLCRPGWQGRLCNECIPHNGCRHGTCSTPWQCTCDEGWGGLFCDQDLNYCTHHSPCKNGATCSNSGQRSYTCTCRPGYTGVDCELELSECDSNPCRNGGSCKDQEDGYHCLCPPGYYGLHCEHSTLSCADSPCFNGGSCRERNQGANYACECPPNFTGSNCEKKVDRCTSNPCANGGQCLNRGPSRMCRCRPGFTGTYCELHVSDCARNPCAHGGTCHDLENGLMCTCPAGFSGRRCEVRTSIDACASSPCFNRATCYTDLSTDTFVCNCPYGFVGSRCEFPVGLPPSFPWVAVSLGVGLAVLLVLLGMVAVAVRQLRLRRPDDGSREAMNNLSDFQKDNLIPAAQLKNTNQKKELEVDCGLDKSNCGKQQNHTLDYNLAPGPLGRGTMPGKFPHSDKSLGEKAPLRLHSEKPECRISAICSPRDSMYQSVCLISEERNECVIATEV
# Experimental: (§1) Cells diluted in PBS containing 2% FBS were seeded at a density of 3000 expressing and 15000 mock transfected cells per well in 384 well plates (Corning Costar, catalog #3712). Immediately after plating, 15 or 20 μl/well of hybridoma supernatants and 10 μl/well of secondary antibody (Goat anti-human IgG Fc Cy5, final concentration 750 ng/ml) were added and plates incubated for 3 h at room temperature prior to reading the fluorescence on the FMAT 8200 instrument (Applied Biosystems). The binding of human Notch1/Fc chimera (R&D systems, catalog #3647-TK), diluted 1:2 from 2.86 μg/ml was used as a positive control for DLL4 and human Notch3/Fc chimera diluted from 10 μg/ml was used a positive control for binding to Jagged1. Results for 12 hybridoma supernatants showing binding of hybridoma supernatants to human/cynomolgus monkey DLL4 and human Jagged are shown in Table 3.
# [4] = biological target: T3, full length human DLL4; assay: FMAT competition, supernatant vs Alexa-647 human Notch1/Fc, 293T cells with human DLL4; FMAT competition with Alexa-647 human Notch1/Fc, native human DLL4 on 293T cells, 4 C, n = 3
# Experimental: (§2) Transfected and untransfected 239T cells were reconstituted in PBS containing 2% FCS and 5000 transfected and 17500 non-transfected cells were plated in 20 μl into wells of a 384-well tissue culture plate (Corning Costar, catalog #3712). Subsequently, 20 μl of hybridoma supernatant was added and plates were incubated at 4° C. for 1 h, at which time 20 μl of Alexa-647 labeled human Notch1/Fc was added at a final concentration of 6.7 ng/ml. After a further 3 h incubation at 4° C., the amount of bound Notch1/Fc was determined by reading the fluorescence in each well using an FMAT 8200 instrument (Applied Biosystems). Results are expressed as % inhibitions with the minimum inhibition in the assay being determined by the effects of non-DLL4 binding supernatants prepared in a similar way as described in example 2, and the maximum inhibition being defined as the signal obtained in the presence of a saturating concentration of unlabeled Notch1/Fc. N.T.=not tested
# [5] = biological target: T3, full length human DLL4; assay: FACS competition vs 0.25 µg/ml human Notch1/Fc, HEK293 cells with human DLL4
# Experimental: Further experiments were performed on selected antibodies using HEK293 cells that were stably transfected with either human, mouse or cynomolgus monkey DLL4 using retroviral constructs. In these experiments, anti-DLL4 antibodies (final concentration: 10-0.01 μg/ml) diluted in PBS containing 2% FCS were added to DLL4-expressing HEK 293 cells (50000 cells/well diluted in PBS containing 2% FCS) and incubated for 1 h at 4° C. Subsequently, Alexa-647 labeled human, rat or APC labeled mouse Notch1/Fc (e.g. R&D Systems, catalog #3647-TK-050, 1057-TK-050, 5267-TK-050, respectively) was added at a final concentration of 0.01-0.5 μg/ml and plates were incubated for a further 2 h at 4° C. prior to washing and reading on a FACSCalibur instrument.
# [6] = biological target: T3, full length human DLL4; assay: FMAT competition, supernatant vs Alexa-647 human Notch1/Fc, 293T cells with human DLL4; FMAT competition with Alexa-647 human Notch1/Fc, native human DLL4 on 293T cells, 4 C, n = 2
# Experimental: as §2
# [7] = biological target: T3, full length human DLL4; assay: FMAT, hybridoma supernatant, 293T cells with human DLL4; FMAT, hybridoma supernatant, native full length human DLL4 on live 293T cells, room temperature
# Experimental: as §1
Binder,binding result [1],binding result [2],Count [3],FL1 [3],FL1 x count [3],% inhibition n = 3 [4],IC50 [5],% inhibition n = 2 [6],Count [7],FL1 [7],FL1 x count [7]
B1,no binding,no binding,191,10800,2.06e+06,–,–,–,–,–,–
B2,no binding,no binding,–,–,–,148%,1.62 nM,109%,194,9930,1.93e+06
B3,–,–,198,9810,1.94e+06,–,–,–,–,–,–
B4,–,–,–,–,–,140%,1.59 nM,131%,181,10500,1.91e+06
